This series deals with the molecule itself. The experiment in a line: cryo-EM structure; Slo1 tetramers in lipid nanodiscs (MSP1E3D1); two samples: Low-Barium (~1.4 mM Ba2+, PDB 7RK6) and High-Barium (10 mM Ba2+ throughout purification, PDB 7RJT); Titan Krios, K2 detector.

B1: Aplysia californica Slo1 BK channel (natural protein)
chain: not shown
notes: Homotetramer in lipid nanodiscs (scaffold MSP1E3D1); also called Aplysia Slo1; Aplysia BK channel; not shown: GFP, C-terminal, cleaved; rho-1D4, C-terminal, cleaved
For B1, the “stoichiometry N” value amounted to 4.
